Km data for one protein are collected here from article PMC10761072, “Post-transcriptional capping generates coenzyme A-linked RNA” (RNA Biology, 2023).

Substrate in the data set: CC(C)(COP(=O)(O)O)[C@@H](O)C(=O)NCCC(=O)NCCS
The data set can be described thus: purified protein. To be noted: 10 µM pppAGGAA RNA as acceptor, 500 nM PPAT, 5 mM MgCl2, pH 7.5, 37°C, pPant 10-200 µM. The data set is classed as biochemical, Escherichia coli.

B1: phosphopantetheine adenylyltransferase (PPAT, CoaD) (Escherichia coli K-12) (protein)
chain: MQKRAIYPGTFDPITNGHIDIVTRATQMFDHVILAIAASPSKKPMFTLEERVALAQQATAHLGNVEVVGFSDLMANFARNQHATVLIRGLRAVADFEYEMQLAHMNRHLMPELESVFLMPSKEWSFISSSLVKEVARHQGDVTHFLPENVHQALMAKLA
notes: recombinant full-length enzyme expressed from coaD plasmid and purified; hexamer
One may read the Km as the substrate concentration at which the rate is half of its maximum. On to B1, for which the Km is recorded as 14 µM.
